Data published in patent publication US20180111972A1 (Stanford University, published 2018).

Tests used:
[1] = target: T1, human VEGFR on human umbilical vein endothelial cells (HUVECs) (human, UniProt P35968 20-1356); assay: flow cytometry on HUVECs, soluble ligand titrated
T1 construct: The phosphorylation blots on these cells detect VEGFR2

[2] = target: T1, human VEGFR on human umbilical vein …; assay: flow cytometry on HUVECs, soluble ligand titrated 3 h at 4 C, anti-FLAG-PE
Experimental: Cells were incubated with various concentrations of hybrid PDGF/VEGF for 3 hours at 4° C. Binding was detected using an R-PE-conjugated anti-FLAG antibody, then analyzed by flow cytometry.

[3] = target: T1, human VEGFR on human umbilical vein …; assay: cell-based or functional assay

T1 sequence (P35968 20-1356 limits assumed): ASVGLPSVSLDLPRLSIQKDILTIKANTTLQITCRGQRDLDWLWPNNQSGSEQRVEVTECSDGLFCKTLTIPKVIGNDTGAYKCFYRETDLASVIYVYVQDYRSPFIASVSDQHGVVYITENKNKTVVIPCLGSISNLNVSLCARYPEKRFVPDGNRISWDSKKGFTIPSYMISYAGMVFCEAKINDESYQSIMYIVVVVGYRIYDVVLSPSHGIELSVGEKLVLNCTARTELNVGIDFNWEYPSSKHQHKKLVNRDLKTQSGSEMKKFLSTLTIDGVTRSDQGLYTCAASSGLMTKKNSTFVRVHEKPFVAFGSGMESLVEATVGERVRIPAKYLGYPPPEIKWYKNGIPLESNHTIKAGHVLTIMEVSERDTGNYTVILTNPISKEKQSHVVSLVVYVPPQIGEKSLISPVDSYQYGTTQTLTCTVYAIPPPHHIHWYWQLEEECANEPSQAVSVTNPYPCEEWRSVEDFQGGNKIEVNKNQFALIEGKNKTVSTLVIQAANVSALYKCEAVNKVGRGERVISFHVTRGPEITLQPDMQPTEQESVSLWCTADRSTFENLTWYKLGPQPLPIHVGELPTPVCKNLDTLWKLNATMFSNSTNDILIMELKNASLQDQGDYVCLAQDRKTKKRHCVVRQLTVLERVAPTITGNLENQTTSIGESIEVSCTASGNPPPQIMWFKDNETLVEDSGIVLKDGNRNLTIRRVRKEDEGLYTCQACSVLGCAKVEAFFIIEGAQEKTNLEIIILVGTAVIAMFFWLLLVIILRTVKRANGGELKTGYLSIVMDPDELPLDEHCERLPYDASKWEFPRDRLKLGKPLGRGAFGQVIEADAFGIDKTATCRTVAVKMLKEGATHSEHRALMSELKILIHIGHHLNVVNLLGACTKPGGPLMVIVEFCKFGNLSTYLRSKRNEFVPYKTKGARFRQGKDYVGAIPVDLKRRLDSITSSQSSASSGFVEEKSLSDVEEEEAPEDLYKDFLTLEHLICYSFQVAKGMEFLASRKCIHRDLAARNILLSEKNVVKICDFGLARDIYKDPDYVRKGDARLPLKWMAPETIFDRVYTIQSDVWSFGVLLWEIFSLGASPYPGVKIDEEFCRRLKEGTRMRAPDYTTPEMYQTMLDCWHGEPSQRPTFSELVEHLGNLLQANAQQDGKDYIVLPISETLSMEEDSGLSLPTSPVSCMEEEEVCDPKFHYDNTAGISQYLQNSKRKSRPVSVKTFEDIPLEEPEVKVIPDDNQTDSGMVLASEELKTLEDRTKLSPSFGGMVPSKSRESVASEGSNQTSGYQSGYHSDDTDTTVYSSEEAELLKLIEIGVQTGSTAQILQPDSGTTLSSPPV

Row | Binder | fold improvement over the bivalent scVEGFwt [1] | Kd [2] | IC50 of inhibition of HUVEC proliferation induced by 0.5 nM VEGF165, alamarBlue [3]
1 | PVAM-S (PV R32A), soluble, FLAG and hexahistidine tags (designed binder, Secreted from S. cerevisiae YVH10 and treated with Endo Hf) DYKDDDDKIAEPAMIAECHPIETLVDILQEYPDEIGYIFKPSCVPLMRCGGCCNNRNVQCRPTEESNITMQIMRIKPHRGQHIGEMSFLQHNKCRCETVAAGSTSGSGKSSEGKGEVVKFMDVYQRSYCKTRTEVFEISRRLIDATNANFLVWPPCVEVQRCSGCCNHEGLECVPTQVQLRPVQVRKIEFVRKKPIFKKATVTLEDHLACECRPKKDHHHHHH | 7.5 fold | 0.2 nM | –
2 | PV6 PDGF/VEGF chimera, soluble, N-terminal FLAG and C-terminal hexahistidine tags (designed binder, Secreted from S. cerevisiae YVH10 and treated with Endo Hf; also called soluble PV6) DYKDDDDKIAEPAMIAECHPIETLVDIFQEYPDEIEYIFKPSCVPLMRCGGCCNNRNVQCRPTEESNITMQIMRIKPHQGQHIGEMSFLQHNKCKCETVAAGSTSGSGKSSEGKGEVVKFMDVYQRSYCKTRTEVFEISRRLIDRTNANFLVWPPCVEVQRCSGCCNDEGLECVPTQVQLRPVQVRKIEIVRKKPIFKKATVTLEDHLACKCRPKKDHHHHHH | – | – | 110 nM
